The text below walks through data of paper PMC7821693, “Revealing biophysical properties of KfrA-type proteins as a novel class of cytoskeletal, coiled-coil plasmid-encoded proteins”.

Where “and” joins values, the source holds several entries; their conditions need not be identical. Equal entries are not always repeated.

For data set [1], the target named is His6-KfrA_(R751) (plasmid R751 (IncP-1β)). As to the kind of experiment: cross-linking; glutaraldehyde at different concentrations, protein 0.1 mg/ml, 20 min at 25 °C, 0.05 M bicine-NaOH pH 8.5, 0.1 mM DTT, 0.4 M NaCl; products on SDS-PAGE.
The target in data set [2] is T1, KfrA RA3 (His6-KfrARA3) (IncU plasmid RA3, UniProt Q209P3 1-355).
T1 sequence: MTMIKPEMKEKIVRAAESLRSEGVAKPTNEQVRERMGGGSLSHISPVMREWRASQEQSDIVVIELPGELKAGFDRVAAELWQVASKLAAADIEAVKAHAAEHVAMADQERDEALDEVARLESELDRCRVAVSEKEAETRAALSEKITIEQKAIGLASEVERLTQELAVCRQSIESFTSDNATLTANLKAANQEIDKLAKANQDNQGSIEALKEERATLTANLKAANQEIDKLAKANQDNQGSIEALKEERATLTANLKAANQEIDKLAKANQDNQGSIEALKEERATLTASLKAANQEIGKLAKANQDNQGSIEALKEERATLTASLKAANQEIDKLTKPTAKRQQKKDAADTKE
As to the kind of experiment: competition; unlabeled competitor vs labeled OKRA3; EMSA: 50 mM Tris-HCl pH 8.0, 10 mM MgCl2, 50 mM NaCl, 10 pmol DNA, 30 min at 37 C (legend: 25 C), 2.5% agarose in 0.5x TBE; TEM: 0.3 mg/ml protein, 50 mM sodium phosphate pH 7.5, 150 mM NaCl. Conditions: protein: recombinant; chain copies: 2; blunt.

For data set [3], the target named is T1, KfrA RA3 (His6-KfrARA3). In words: EMSA; two complexes, some smear; EMSA: 50 mM Tris-HCl pH 8.0, 10 mM MgCl2, 50 mM NaCl, 10 pmol DNA, 30 min at 37 C (legend: 25 C), 2.5% agarose in 0.5x TBE; TEM: 0.3 mg/ml protein, 50 mM sodium phosphate pH 7.5, 150 mM NaCl. To be noted: protein: recombinant; chain copies: 2; blunt.
Data set [4] deals with T2, KfrA R751 (His6-KfrAR751) (IncP-1beta plasmid R751, UniProt P71173 1-342).
T2 sequence: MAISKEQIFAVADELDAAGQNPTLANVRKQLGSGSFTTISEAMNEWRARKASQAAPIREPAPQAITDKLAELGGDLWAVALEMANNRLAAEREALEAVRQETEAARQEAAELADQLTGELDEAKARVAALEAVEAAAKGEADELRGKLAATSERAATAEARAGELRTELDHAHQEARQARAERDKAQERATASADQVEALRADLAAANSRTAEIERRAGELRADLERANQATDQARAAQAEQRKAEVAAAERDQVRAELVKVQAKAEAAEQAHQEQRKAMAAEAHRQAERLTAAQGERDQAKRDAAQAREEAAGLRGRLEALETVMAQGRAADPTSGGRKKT
In words: EMSA; complex unstable, smear; two complexes; EMSA: 50 mM Tris-HCl pH 8.0, 10 mM MgCl2, 50 mM NaCl, 10 pmol DNA, 30 min at 37 C (legend: 25 C), 2.5% agarose in 0.5x TBE; TEM: 0.3 mg/ml protein, 50 mM sodium phosphate pH 7.5, 150 mM NaCl. To be noted: protein: recombinant; chain copies: 2; blunt.

For His6-KfrA_(R751) (natural protein), the stoichiometry N in data set [1] was 2 and 4.

B1: OG5/OD5 (#9/#10), specific competitor (dsDNA)
DNA 1: TATGTATTGTATGTATTGTATTAAAATACAATACATACAATACAGG
DNA 2: CCTGTATTGTATGTATTGTATTTTAATACAATACATACAATACATA
Consider B1, for which, in the data set with KfrA RA3 (His6-KfrARA3) [2], the binding result is given as “binds”.

B2: OKRA3 (#17/#18), 60 bp (dsDNA)
DNA 1: TCCGTTGTATTGTATGTATTGTATGTATTGTATTAAAATACAATACATACAATACAGGGA
DNA 2: TCCCTGTATTGTATGTATTGTATTTTAATACAATACATACAATACATACAATACAACGGA
As to B2, the binding result with KfrA RA3 (His6-KfrARA3) [3] is “binds”.

B3: OKR751 (#15/#16), 50 bp (dsDNA)
DNA 1: CTTGCGTAGTGTTGTATGTTGTAGTATGCTACACGCTACAACATACAACC
DNA 2: GGTTGTATGTTGTAGCGTGTAGCATACTACAACATACAACACTACGCAAG
With B3, the binding result in data set [4] was “binds”.
